Reference: patent US20200306340A1 (ACCELERON PHARMA, published 2020)
Blank lines part the entries; values can stand above or below the molecule they belong to.

Legend:
[1] = molecular target: T1, activin A (UniProt P08476 311-426); experiment: cell-based or functional assay
T1 sequence (looked up): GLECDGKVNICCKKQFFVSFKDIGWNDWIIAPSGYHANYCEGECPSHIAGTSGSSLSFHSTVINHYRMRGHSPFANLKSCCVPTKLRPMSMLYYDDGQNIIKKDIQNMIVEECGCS

[2] = molecular target: T2, GDF11 (UniProt O95390 299-407); experiment: cell-based or functional assay
T2 sequence (looked up): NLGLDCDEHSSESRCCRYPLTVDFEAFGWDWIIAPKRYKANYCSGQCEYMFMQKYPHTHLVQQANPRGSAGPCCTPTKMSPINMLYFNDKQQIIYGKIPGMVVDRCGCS

[3] = molecular target: T3, BMP9 (UniProt Q9UK05 320-429); experiment: Biacore SPR; receptor-Fc captured by anti-Fc antibody, ligand injected; transient interaction
T3 construct: also called GDF2
T3 sequence (looked up): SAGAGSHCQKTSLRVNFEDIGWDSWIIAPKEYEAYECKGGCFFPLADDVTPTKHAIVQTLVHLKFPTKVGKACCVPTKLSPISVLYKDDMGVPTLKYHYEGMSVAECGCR

[4] = molecular target: T4, activin B (UniProt P09529 293-407); experiment: Biacore SPR; receptor-Fc captured by anti-Fc antibody, ligand injected
T4 sequence (looked up): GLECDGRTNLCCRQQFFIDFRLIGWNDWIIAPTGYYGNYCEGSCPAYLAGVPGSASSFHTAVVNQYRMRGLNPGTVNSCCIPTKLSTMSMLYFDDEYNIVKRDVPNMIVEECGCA
Procedure: (§1) Ligands were injected and allowed to flow over the captured receptor protein.

[5] = molecular target: T5, GDF8 (UniProt O14793 267-375); experiment: as above
T5 construct: also called myostatin
T5 sequence (looked up): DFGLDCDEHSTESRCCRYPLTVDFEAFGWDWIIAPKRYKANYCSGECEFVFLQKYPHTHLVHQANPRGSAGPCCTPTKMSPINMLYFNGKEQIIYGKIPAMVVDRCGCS
Procedure: as §1

[6] = molecular target: T6, BMP6 (UniProt P22004 382-513, limits assumed); experiment: as above
T6 sequence (looked up): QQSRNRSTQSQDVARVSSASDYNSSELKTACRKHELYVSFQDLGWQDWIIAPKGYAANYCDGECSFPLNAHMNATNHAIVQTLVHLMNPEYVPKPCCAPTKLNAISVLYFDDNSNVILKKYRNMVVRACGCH
Procedure: as §1

[7] = molecular target: T1, activin A; experiment: as above
Procedure: as §1

[8] = molecular target: T2, GDF11; experiment: as above
Procedure: as §1

[9] = molecular target: T7, BMP10 (UniProt O95393 317-424); experiment: as above
T7 sequence (looked up): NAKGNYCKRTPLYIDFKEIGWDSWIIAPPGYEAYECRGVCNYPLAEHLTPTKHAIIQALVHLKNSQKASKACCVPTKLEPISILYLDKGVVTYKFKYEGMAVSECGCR
Procedure: as §1

[10] = molecular target: T8, GDF3 (UniProt Q9NR23 251-364); experiment: as above
T8 sequence (looked up): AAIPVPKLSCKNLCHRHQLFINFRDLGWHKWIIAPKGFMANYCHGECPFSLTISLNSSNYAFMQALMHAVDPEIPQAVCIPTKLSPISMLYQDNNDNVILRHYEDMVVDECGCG
Procedure: as §1

Activin Inhibition Activity, KI (A-204 CAGA12 luciferase reporter gene assay) [1]: 1000 nM | GDF11 Inhibition Activity, KI (A-204 CAGA12 luciferase reporter gene assay) [2]: 1000 nM
Molecule: ActRIIB-Fc A64 (20-134) (from UniProt Q13705 20-134) (Fc fusion)

Kd [3]: 3.4 nM | Kd [4]: 0.006 nM | koff [4]: 4e-05 s⁻¹ | kon [4]: 7.1e+06 M⁻¹ s⁻¹ | Kd [5]: 0.55 nM | koff [5]: 0.00021 s⁻¹ | kon [5]: 390000 M⁻¹ s⁻¹ | Kd [6]: 2.7 nM | koff [6]: 0.0055 s⁻¹ | kon [6]: 2e+06 M⁻¹ s⁻¹ | Kd [7]: 0.012 nM | koff [7]: 0.00015 s⁻¹ | kon [7]: 1.3e+07 M⁻¹ s⁻¹ | Kd [8]: 0.003 nM | koff [8]: 0.00011 s⁻¹ | kon [8]: 3.8e+07 M⁻¹ s⁻¹ | Kd [9]: 0.074 nM | koff [9]: 0.0041 s⁻¹ | kon [9]: 5.6e+07 M⁻¹ s⁻¹ | Kd [10]: 4.9 nM | koff [10]: 0.017 s⁻¹ | kon [10]: 3.4e+06 M⁻¹ s⁻¹
B1: ALK4-Fc:ActRIIB-Fc heterodimer (Fc fusion)
chain 1: SGPRGVQALLCACTSCLQANYTCETDGACMVSIFNLDGMEHHVRTCIPKVELVPAGKPFYCLSSEDLRNTHCCYTDYCNRIDLRVPSGHLKEPEHPSMWGPVE
chain 2: GRGEAETRECIYYNANWELERTNQSGLERCEGEQDKRLHCYASWRNSSGTIELVKKGCWLDDFNCYDRQECVATEENPQVYFCCCEGNFCNERFTHLPEAGGPEVTYEPPPTAPT
